Assay results: article PMC3458824, “Direct Observation of the Uptake of Outer Membrane Proteins by the Periplasmic Chaperone Skp” (PLoS ONE, 2012)
Where a chain is given by its changes, count along the chain named. In names and notes the source's numbering stands.

T1: Skp-D128C-Cy3 (Escherichia coli, UniProt P0AEU7 21-161, D128C, Cy3 (Cy3-maleimide) on the introduced cysteine at 128)
T1 construct: Skp of Escherichia coli, each monomer 141 residues as printed; Extent of labeling greater than 90%; one dye on each of the three chains of the trimer; also called Cy3 labeled Skp mutant D128C; Skp-Cy3; source: E. coli BL21 (DE3), purified (Ni-NTA), labeled with Cy3-maleimide
T1 sequence (looked up): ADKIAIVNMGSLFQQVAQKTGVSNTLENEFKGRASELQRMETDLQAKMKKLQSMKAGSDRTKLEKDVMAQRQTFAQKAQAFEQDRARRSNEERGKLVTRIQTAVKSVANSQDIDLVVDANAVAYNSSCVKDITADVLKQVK

T2: wild-type Skp (Escherichia coli, UniProt P0AEU7 21-161)
T2 sequence (looked up): T1 sequence (looked up) with C128D

B1: OmpC (natural protein, Escherichia coli, UniProt P06996 22-367, looked up)
chain: AEVYNKDGNKLDLYGKVDGLHYFSDNKDVDGDQTYMRLGFKGETQVTDQLTGYGQWEYQIQGNSAENENNSWTRVAFAGLKFQDVGSFDYGRNYGVVYDVTSWTDVLPEFGGDTYGSDNFMQQRGNGFATYRNTDFFGLVDGLNFAVQYQGKNGNPSGEGFTSGVTNNGRDALRQNGDGVGGSITYDYEGFGIGGAISSSKRTDAQNTAAYIGNGDRAETYTGGLKYDANNIYLAAQYTQTYNATRVGSLGWANKAQNFEAVAQYQFDFGLRPSLAYLQSKGKNLGRGYDDEDILKYVDVGATYYFNKNMSTYVDYKINLLDDNQFTRDAGINTDNIVALGLVYQF
notes: Outer membrane protein OmpC of Escherichia coli; 346 residues as printed; Kept unfolded in 8 M urea and diluted into the Skp solution (final urea 0.38 M in stopped-flow); the printed 346 residues fit the mature protein; also called wild-type OmpC; urea-denatured OmpC; source: E. coli BL21 (DE3), purified (Ni-NTA) in 8 M urea, unfolded
B2: OmpC-D290C-Cy5 (natural protein, Escherichia coli, UniProt P06996 22-367, looked up)
chain: B1 chain with D290C
modifications: Cy5 (Cy5-maleimide) on the introduced cysteine at 290
notes: Outer membrane protein OmpC of Escherichia coli; 346 residues as printed; Extent of labeling greater than 90%; also called Cy5 labeled OmpC mutant D290C; source: E. coli BL21 (DE3), purified (Ni-NTA) in 8 M urea, unfolded, labeled with Cy5-maleimide
B3: Skp-E82C-Cy3 (natural protein, Escherichia coli, UniProt P0AEU7 21-161, looked up)
chain: T1 sequence (looked up) with E82C, C128D
modifications: Cy3 (Cy3-maleimide) on the introduced cysteine at 82
notes: Skp of Escherichia coli, each monomer 141 residues as printed; Extent of labeling greater than 90%; one dye on each of the three chains of the trimer; also called Cy3 labeled Skp mutant E82C; Skp-Cy3; source: E. coli BL21 (DE3), purified (Ni-NTA), labeled with Cy3-maleimide
B4: OmpC-L139C-Cy5 (natural protein, Escherichia coli, UniProt P06996 22-367, looked up)
chain: B1 chain with L139C
modifications: Cy5 (Cy5-maleimide) on the introduced cysteine at 139
notes: Outer membrane protein OmpC of Escherichia coli; 346 residues as printed; Extent of labeling greater than 90%; also called Cy5 labeled OmpC mutant L139C; source: E. coli BL21 (DE3), purified (Ni-NTA) in 8 M urea, unfolded, labeled with Cy5-maleimide
B5: Skp-K55C-Cy3 (natural protein, Escherichia coli, UniProt P0AEU7 21-161, looked up)
chain: T1 sequence (looked up) with K55C, C128D
modifications: Cy3 (Cy3-maleimide) on the introduced cysteine at 55
notes: Skp of Escherichia coli, each monomer 141 residues as printed; Extent of labeling greater than 90%; one dye on each of the three chains of the trimer; also called Cy3 labeled Skp mutant K55C; Skp-Cy3; source: E. coli BL21 (DE3), purified (Ni-NTA), labeled with Cy3-maleimide
B6: OmpF (natural protein, Escherichia coli)
chain: AEIYNKDGNKVDLYGKAVGLHYFSKGNGENSYGGNGDMTYARLGFKGETQINSDLTGYGQWEYNFQGNNSEGADAQTGNKTRLAFAGLKYADVGSFDYGRNYGVVYDALGYTDMLPEFGGDTAYSDDFFVGRVGGVATYRNSNFFGLVDGLNFAVQYLGKNERDTARRSNGDGVGGSISYEYEGFGIVGAYGAADRTNLQEAQPLGNGKKAEQWATGLKYDANNIYLAANYGETRNATPITNKFTNTSGFANKTQDVLLVAQYQFDFGLRPSIAYTKSKAKDVEGIGDVDLVNYFEVGATYYFNKNMSTYVDYIINQIDSDNKLGVGSDDTVAVGIVYQF
notes: Outer membrane protein OmpF of Escherichia coli; probably the mature protein as for OmpC (surmise); also called wild-type OmpF; source: E. coli BL21 (DE3), purified (Ni-NTA) in 8 M urea, unfolded
B7: transmembrane domain of OmpA (domain or fragment, Escherichia coli)
chain: APKDNTWYTGAKLGWSQYHDTGFINNNGPTHENQLGAGAFGGYQVNPYVGFEMGYDWLGRMPYKGSVENGAYKAQGVQLTAKLGYPITDDLDIYTRLGGMVWRADTKSNVYGKNHDTGVSPVFAGGVEYAITPEIATRLEYQWTNNIGDAHTIGTRPDNGMLSLGVSYRFGQGEAA
notes: Transmembrane beta-barrel domain of outer membrane protein OmpA of Escherichia coli; PDB 2GE4 is named as the structure of this domain; also called OmpA-TMD; source: E. coli BL21 (DE3), purified (Ni-NTA) in 8 M urea, unfolded

Legend:
[1] = biological target: Skp-E82C (Escherichia coli) (UniProt P0AEU7); assay: fluorescence correlation spectroscopy (FCS); Cy3 labeled OmpC in 8 M urea diluted dropwise into 50 mM PBS pH 7.0, 100 mM NaCl, 0.01% Tween 20 with 0.2 µM reduced Skp; molecular weight of the complex from the diffusion time with free Cy3 as reference
[2] = biological target: Skp-K55C (Escherichia coli) (UniProt P0AEU7); assay: as above
[3] = biological target: Skp-D128C (Escherichia coli) (UniProt P0AEU7); assay: as above
[4] = biological target: B5; assay: stopped-flow fluorescence (Cy3 self-quenching); OMP in 8 M urea mixed 1:20 with Cy3 labeled Skp mutant; both 0.03 µM final; 50 mM PBS pH 7.0, 100 mM NaCl, 0.01% Tween 20, 25°C; traces fitted to two or three exponentials; conditions: both partners purified
[5] = biological target: B3; assay: as above; conditions: both partners purified
[6] = biological target: T1, Skp-D128C-Cy3; assay: as above; conditions: both partners purified
[7] = biological target: T2, wild-type Skp; assay: cell-based or functional assay
[8] = biological target: T1, Skp-D128C-Cy3; assay: FRET or BRET; stopped-flow FRET; Cy5 labeled OmpC mutant in 8 M urea mixed 1:20 with Cy3 labeled Skp mutant; both 0.03 µM final; 50 mM PBS pH 7.0, 100 mM NaCl, 0.01% Tween 20, 25°C; Cy5 emission, fitted to three exponentials; conditions: both partners purified
[9] = biological target: B4; assay: as above; conditions: both partners purified
[10] = biological target: B2; assay: as above; conditions: both partners purified

Cy3 labeled OmpC (from UniProt P06996 22-367) (natural protein)
stoichiometry N [1]: 1 OmpC:Skp
stoichiometry N [2]: 1 OmpC:Skp
stoichiometry N [3]: 1 OmpC:Skp

B1
time constant τ1 of the first phase [4]: 82.6 ± 5.5 ms
time constant τ1 of the first phase [5]: 125 ± 7.8 ms
time constant τ1 of the first phase [6]: 188 ± 12 ms
aggregation of urea-denatured OmpC (1.5 µM) by light scatter at 380 nm, 25°C, with 0, 1.5, 4.5 and 7.5 µM wild-type Skp [7]: 5 fold molar excess

B2
time constant τ1 of the fast phase [8]: 285 ± 19 ms

B3
binding result [9]: binds
binding result [10]: binds

B4
time constant τ1 of the fast phase [8]: 208 ± 14 ms

B5
binding result [9]: binds
binding result [10]: binds

B6
time constant τ1 of the first phase [4]: 61.3 ± 4.9 ms
time constant τ1 of the first phase [5]: 182 ± 11 ms
time constant τ1 of the first phase [6]: 270 ± 16 ms

B7
time constant τ1 of the first phase [4]: 38.6 ± 2.7 ms
time constant τ1 of the first phase [5]: 61.7 ± 4.2 ms
time constant τ1 of the first phase [6]: 105 ± 7.3 ms
